The Immune Epitope Database (IEDB)

Experiments:
[1] = biological target: HLA-A*02:03; assay: IEDB peptide-MHC binding, purified MHC/competitive/radioactivity; ≥ and ≤ were set here for values at or beyond the usual limits of such assays
[2] = biological target: HLA-A*02:06; assay: as above
[3] = biological target: HLA-A*02:02; assay: as above
[4] = biological target: HLA-A*02:01; assay: IEDB peptide-MHC binding, cellular MHC/competitive/fluorescence; ≥ and ≤ were set here for values at or beyond the usual limits of such assays; details: source organism: Vaccinia virus WR
[5] = biological target: HLA-A*68:02; assay: as above
[6] = biological target: HLA-A*02:01; assay: IEDB peptide-MHC binding, purified MHC/competitive/radioactivity; ≥ and ≤ were set here for values at or beyond the usual limits of such assays
[7] = source organism: Vaccinia virus WR
[8] = source organism: Hepacivirus hominis

| Sequence | IC50 [1, 7] [nM] | IC50 [2, 7] [nM] | IC50 [3, 7] [nM] | IC50 [4] [nM] | IC50 [5, 7] [nM] | IC50 [6, 7] [nM] | other results |
| --- | --- | --- | --- | --- | --- | --- | --- |
| NITPDDGLGL | 1290 | 3450 | 1910 | 6530 | 12600 |  |  |
| QLYTISSESL | 245 | 4740 | 72 | 5290 | 6880 |  |  |
| NIDSIMSMM | 874 | 4720 | 25 | 5140 | 11100 |  |  |
| KIKQTGINNV | 3.1 | 2550 | 237 | 7300 | 35900 |  |  |
| RLYDYFTRVT | 551 | 691 | 2450 | 6110 | 7340 |  |  |
| DQDTMLFASA | 663 | 1720 | 891 | 7380 | 5660 |  |  |
| MIGNYFSGVL | 761 | 1310 | 712 | 5760 | 5620 |  |  |
| IISTDQDTML | 1810 | 666 | 451 | 8570 | 32400 |  |  |
| FTEEQQQSFM | 1750 | 833 | 1120 | 10100 | 8160 |  |  |
| KIDILQMREI | 414 | 875 | 1280 | 6510 | ≥ 70000 |  |  |
| KVTVPTNDHI | 1240 | 3600 | 4720 | 13200 | 6590 |  |  |
| RVLYDEFVT | 1410 | 1720 | 2170 | 13500 | 28000 |  |  |
| KINEMVDEL | 76 | 317 | 1.4 |  | 48400 | 291 |  |
| FMLCLLLLSV |  |  |  |  |  |  | IC50 [1, 8]: 315 nM; IC50 [6, 8]: 149 nM; IC50 [2, 8]: 194 nM; IC50 [3, 8]: 472 nM; IC50 [5, 8]: 28100 nM |
| TLLLWISVKV |  |  |  |  |  |  | IC50 ([1]; source organism: SARS-CoV1): 1060 nM; IC50 ([6]; source organism: SARS-CoV1): 253 nM; IC50 ([2]; source organism: SARS-CoV1): 875 nM; IC50 ([3]; source organism: SARS-CoV1): 549 nM; IC50 ([5]; source organism: SARS-CoV1): 15700 nM |
| YIEDELRRAA | 166 | 204 | 628 |  | 24800 | 573 |  |
| GTKGKLYIA | 56 | 2530 | 1720 | 23300 | ≥ 70000 |  |  |

| Sequence | IC50 [1, 7] [nM] | IC50 [2, 7] [nM] | IC50 [3, 7] [nM] | IC50 [4] [nM] | IC50 [5, 7] [nM] | IC50 [6, 7] [nM] | other results |
| --- | --- | --- | --- | --- | --- | --- | --- |
| AMIHKTYIDV | 27 | 206 | 335 |  | 21200 | 173 |  |
| LLYFILFFVA |  |  |  |  |  |  | IC50 [1, 8]: 4700 nM; IC50 [6, 8]: 1120 nM; IC50 [2, 8]: 993 nM; IC50 [3, 8]: 3740 nM; IC50 [5, 8]: ≥ 70000 nM |
| VIPDELIDV | 44 | 556 | 609 |  | 52200 | 229 |  |
| VIPDELIDVL | 4590 | 298 | 2490 | 33000 | 9260 |  |  |
| SIKMIYDLNA | 257 | 1030 | 852 |  | 5810 | 1780 |  |
| ATLNTLITL | 577 | 9.6 | 373 |  | 5360 | 57 |  |
| QLVFNSISA | 1560 | 3780 | 4800 | 9420 | 8220 |  |  |
| QLLKILDNL | 319 | 135 | 227 |  | 21700 | 441 |  |
| GLRQQLEDI | 4.7 | 4310 | 43 |  | ≥ 70000 | 125 |  |
| IMRNFLRSIA | 122 | 544 | 60 |  | 54200 | 813 |  |
| LLPLTSLVI | 621 | 1430 | 2390 |  | ≥ 70000 | 1180 |  |
| GINNVQSLI | 378 | 1720 | 474 | 11700 | 30800 |  |  |
| NLLEQLIENI | 1440 | 396 | 836 |  | 24700 | 326 |  |
| VLQAGITRV |  |  |  |  |  |  | IC50 [1, 8]: 12 nM; IC50 [6, 8]: 56 nM; IC50 [2, 8]: 393 nM; IC50 [3, 8]: 98 nM; IC50 [5, 8]: 35600 nM |
| ALDGVLSTFV |  |  |  |  |  |  | IC50 ([1]; source organism: SARS-CoV1): 28 nM; IC50 ([6]; source organism: SARS-CoV1): 28 nM; IC50 ([2]; source organism: SARS-CoV1): 140 nM; IC50 ([3]; source organism: SARS-CoV1): 3.3 nM; IC50 ([5]; source organism: SARS-CoV1): 5200 nM |
| ILHNIYRLFT | 11 | 1210 | 125 |  | 40900 | 231 |  |
| LLLSTTEWQV |  |  |  |  |  |  | IC50 [1, 8]: 101 nM; IC50 [6, 8]: 7.1 nM; IC50 [2, 8]: 13 nM; IC50 [3, 8]: 18 nM; IC50 [5, 8]: 10100 nM |
